The values below come from patent publication US20160187355A1 (AUGUSTA UNIVERSITY RESEARCH INSTITUTE, published 2016).

In assay [1] the target is LRP4N-Myc (rat) (UniProt Q9QYP1). The experiment in a line: solid phase binding of MuSK-AP to coated LRP4, Scatchard plot.
In the next assay the target is T1, LRP4-Myc (UniProt Q9QYP1 21-1905).
T1 construct: whole, on cells; also called Myc-tagged full length LRP4; not shown: Myc tag of pcDNA3.1-MycHis; His tag of pcDNA3.1-MycHis
The experiment in a line: solid phase binding: purified LRP4-Myc (name as in the legend) coated on plate, bound AP activity with pNPP. How it is done:
FIG. 6A-G. Direct interaction between LRP4 and MuSK. […] Flag-MuSKect immobilized on beads were incubated with condition media of cells expressing the extracellular domains of LRP4 (LRP4N-Myc) or the empty vector (control) in the presence or absence of neuronal agrin. Precipitated LRP4 was analyzed by immunoblot with anti-Myc antibody. […] FIG. 6B is a quantitative analysis of LRP4N-Myc and Flag-MuSK. Data shown were mean±SEM, n=3; *, p <0.05 in comparison with the no-agrin group. […] Purified LRP4-Myc was coated on Maxi-Sorp Immuno Plates, which were incubated with MuSK-AP. Bound AP was measured with pNPP as substrate. Data shown were mean±SEM. n=4. FIG. 6D is a Scatchard plot of data in FIG. 6C. Y axis represents the ratio of bound to free MuSK-AP whereas X axis represents the concentration of bound MuSK-AP. […] Experiments were done as in FIG. 6A except condition medium of cells expressing the extracellular domain of LRP6 was used. […] HEK293 cells were transfected with LRP4 and/or Flag-MuSK. Lysates were incubated with anti-Flag antibody, and resulting immunocomplex was analyzed for LRP4 and Flag. Lysates were also probed to indicate equal amounts of indicated proteins. […]
Solid phase binding assay. […] Coated wells were incubated with purified AP fusion proteins and the AP activity was measured using pNPP as substrate.

Assay [2] concerns the target LRP4N-Myc (rat) (UniProt Q9QYP1). The experiment in a line: solid phase binding of nAgrin-AP to coated LRP4, Scatchard plot.
The target is the same in assay [3]. The experiment in a line: solid phase binding: purified LRP4 (legend: LRP4-Myc; paragraph 111: LRP4N-Myc) coated on plate, bound AP activity with pNPP.
Assay [4] concerns the target T2, full length LRP4 (pcDNA-LRP4) (UniProt Q9QYP1 21-1905, limits assumed).
T2 construct: whole, on cells; Expressed in transfected C2C12 myoblasts or HEK293 cells; also called exogenous LRP4
The experiment in a line: intact cell binding on transfected C2C12 myoblasts, BCIP/NBT staining quantified. As to the method: FIG. 4A-G. Expression of LRP4 enables binding activity for neuronal agrin and MuSK signaling. […] C2C12 myoblasts were transfected by empty vector (control), LRP4 and/or Flag-MuSK. 36 hr after transfection, myoblasts were incubated with AP alone, mAgrin-AP or nAgrin-AP for 90 min at room temperature. Endogenous AP was inactivated by heating and bound AP was visualized in cells by staining with BCIP/NBT. FIG. 4B is a quantification of data in FIG. 4A. Data shown were mean±SEM. n=6; *, P<0.05 in comparison with mAgrin-AP of the same group or nAgrin-AP in the control group. FIG. 4C and FIG. 4D show nAgrin-AP bound to HEK293 cells expressing LRP4, but not those expressing LRP5. HEK293 cells were transfected without (control) or with LRP4-Myc (FIG. 4C) or LRP5-Myc (FIG. 4D). 36 hr after transfection, transfected cells were incubated with nAgrin-AP or mAgrin-AP. In some experiments, control cells were incubated with nAgrin-AP. After heat inactivation of endogenous AP, lysates were assayed for transfected AP using pNPP as substrate. […] In FIG. 4E, lysates were incubated with anti-Flag antibody, and resulting immunocomplex was analyzed with anti-phosphotyrosine antibody 4G10. […] FIG. 4G is a quantitative analysis of data in FIG. 4E and FIG. 4F. MuSK and Abl phosphorylation was quantified by using the ImageJ software. […]

Chain of LRP4N-Myc (rat) (Q9QYP1 21-1723): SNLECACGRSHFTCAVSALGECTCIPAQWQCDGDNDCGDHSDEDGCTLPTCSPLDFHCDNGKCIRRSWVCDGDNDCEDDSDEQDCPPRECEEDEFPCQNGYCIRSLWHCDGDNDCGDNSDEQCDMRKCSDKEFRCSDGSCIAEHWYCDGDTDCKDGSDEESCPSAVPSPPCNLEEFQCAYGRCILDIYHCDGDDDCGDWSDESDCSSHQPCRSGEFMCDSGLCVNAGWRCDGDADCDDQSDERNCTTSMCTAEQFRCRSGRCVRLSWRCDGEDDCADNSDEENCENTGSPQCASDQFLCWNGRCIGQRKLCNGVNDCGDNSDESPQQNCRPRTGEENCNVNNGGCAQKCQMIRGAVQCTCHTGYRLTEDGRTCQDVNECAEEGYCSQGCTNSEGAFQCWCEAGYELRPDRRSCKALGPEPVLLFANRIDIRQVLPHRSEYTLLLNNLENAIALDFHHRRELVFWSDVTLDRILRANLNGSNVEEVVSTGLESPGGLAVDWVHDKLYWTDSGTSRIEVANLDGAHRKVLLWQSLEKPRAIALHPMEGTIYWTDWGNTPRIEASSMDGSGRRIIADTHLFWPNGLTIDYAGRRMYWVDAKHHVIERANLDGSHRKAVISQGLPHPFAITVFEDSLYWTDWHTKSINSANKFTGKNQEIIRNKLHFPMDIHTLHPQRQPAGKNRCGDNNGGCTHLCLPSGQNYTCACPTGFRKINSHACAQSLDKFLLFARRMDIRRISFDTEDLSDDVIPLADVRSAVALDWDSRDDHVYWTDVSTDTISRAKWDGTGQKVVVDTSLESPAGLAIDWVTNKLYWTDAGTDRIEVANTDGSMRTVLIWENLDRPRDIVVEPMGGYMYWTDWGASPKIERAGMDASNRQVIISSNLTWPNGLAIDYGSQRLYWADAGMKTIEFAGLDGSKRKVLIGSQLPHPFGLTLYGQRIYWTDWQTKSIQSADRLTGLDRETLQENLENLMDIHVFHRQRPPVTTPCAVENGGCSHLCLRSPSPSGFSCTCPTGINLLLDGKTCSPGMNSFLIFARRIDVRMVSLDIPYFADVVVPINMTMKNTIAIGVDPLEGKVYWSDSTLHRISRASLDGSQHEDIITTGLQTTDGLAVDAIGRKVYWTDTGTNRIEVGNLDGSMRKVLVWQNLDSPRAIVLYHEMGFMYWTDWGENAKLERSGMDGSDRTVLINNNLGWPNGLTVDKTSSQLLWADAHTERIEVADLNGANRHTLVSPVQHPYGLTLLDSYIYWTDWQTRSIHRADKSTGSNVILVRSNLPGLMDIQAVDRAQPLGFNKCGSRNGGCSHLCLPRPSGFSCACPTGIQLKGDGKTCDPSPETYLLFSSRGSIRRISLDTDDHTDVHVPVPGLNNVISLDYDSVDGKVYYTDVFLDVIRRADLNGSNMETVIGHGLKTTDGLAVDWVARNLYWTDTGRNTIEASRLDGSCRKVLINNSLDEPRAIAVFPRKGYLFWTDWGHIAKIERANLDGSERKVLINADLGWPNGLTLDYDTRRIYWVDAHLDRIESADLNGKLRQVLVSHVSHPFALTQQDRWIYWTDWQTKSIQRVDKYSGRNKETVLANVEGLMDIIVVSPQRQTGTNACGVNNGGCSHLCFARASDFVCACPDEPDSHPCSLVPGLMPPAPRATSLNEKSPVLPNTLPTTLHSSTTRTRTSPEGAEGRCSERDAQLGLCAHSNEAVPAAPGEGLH
T1 sequence (Q9QYP1 21-1905): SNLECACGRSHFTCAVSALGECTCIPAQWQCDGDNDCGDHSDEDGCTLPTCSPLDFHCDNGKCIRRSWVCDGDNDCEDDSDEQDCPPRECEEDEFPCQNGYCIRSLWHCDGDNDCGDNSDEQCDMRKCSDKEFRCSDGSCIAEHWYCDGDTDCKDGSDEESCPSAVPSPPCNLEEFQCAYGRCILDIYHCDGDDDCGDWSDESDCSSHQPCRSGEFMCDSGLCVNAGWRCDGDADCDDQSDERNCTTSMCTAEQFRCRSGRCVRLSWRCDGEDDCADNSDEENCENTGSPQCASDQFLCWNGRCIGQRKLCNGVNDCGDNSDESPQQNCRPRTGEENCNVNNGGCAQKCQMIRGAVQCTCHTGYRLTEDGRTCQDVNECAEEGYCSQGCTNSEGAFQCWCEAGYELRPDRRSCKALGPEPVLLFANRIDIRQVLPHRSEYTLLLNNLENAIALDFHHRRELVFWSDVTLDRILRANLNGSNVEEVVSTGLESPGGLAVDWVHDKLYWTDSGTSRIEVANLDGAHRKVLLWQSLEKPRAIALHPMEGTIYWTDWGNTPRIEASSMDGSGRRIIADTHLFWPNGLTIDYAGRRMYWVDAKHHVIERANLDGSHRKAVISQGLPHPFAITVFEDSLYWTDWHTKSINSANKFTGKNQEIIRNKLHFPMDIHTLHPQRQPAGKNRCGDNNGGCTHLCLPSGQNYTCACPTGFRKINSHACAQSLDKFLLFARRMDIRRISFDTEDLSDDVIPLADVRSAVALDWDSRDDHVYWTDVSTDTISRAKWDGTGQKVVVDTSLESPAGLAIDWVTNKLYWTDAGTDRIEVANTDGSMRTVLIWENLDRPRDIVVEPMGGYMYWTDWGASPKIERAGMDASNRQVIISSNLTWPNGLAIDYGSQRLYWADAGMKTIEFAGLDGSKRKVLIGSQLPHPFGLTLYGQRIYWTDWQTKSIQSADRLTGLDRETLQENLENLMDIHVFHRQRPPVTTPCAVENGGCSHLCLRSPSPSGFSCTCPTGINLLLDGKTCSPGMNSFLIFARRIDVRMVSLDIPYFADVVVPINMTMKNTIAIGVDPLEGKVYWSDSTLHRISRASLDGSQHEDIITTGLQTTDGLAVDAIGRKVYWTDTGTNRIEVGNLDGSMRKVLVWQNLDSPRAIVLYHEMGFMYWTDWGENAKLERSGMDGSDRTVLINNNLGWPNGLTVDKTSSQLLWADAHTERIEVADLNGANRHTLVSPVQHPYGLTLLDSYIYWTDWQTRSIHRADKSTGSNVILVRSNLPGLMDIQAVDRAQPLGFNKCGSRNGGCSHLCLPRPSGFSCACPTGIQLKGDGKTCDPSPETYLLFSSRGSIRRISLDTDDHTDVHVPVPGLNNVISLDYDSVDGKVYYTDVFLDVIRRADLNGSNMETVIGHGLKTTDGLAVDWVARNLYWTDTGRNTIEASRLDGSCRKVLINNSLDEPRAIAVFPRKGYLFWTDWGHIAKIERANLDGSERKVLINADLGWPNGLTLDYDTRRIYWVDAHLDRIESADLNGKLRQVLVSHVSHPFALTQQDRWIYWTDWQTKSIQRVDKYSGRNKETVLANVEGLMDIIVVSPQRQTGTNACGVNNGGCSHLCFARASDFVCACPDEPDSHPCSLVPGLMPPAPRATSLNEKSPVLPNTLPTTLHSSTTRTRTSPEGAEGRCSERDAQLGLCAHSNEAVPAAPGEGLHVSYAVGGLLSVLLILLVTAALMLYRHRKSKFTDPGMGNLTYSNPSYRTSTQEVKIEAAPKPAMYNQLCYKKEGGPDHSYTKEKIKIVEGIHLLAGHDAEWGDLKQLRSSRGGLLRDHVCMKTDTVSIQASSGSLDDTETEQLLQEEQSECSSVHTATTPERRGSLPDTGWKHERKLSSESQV
T2 sequence (Q9QYP1 21-1905 limits assumed): as the sequence (Q9QYP1 21-1905) above

As for “MuSK-AP (from UniProt P05187 23-511) (receptor)”, the Kd – broadly, the free concentration of one partner at which half of the binding sites on the other are occupied at equilibrium, for simple one-to-one binding – with LRP4N-Myc (rat) [1] came out at 450 pM. Further, in the assay with LRP4-Myc, the concentration for a half-maximal effect (EC50 (read off the curve)) (as a rule, the concentration that produces a half-maximal response) was 300 pM.
“nAgrin-AP (from UniProt P25304 1145-1940) (ligand)” registered a dissociation constant Kd in the assay with LRP4N-Myc (rat) [2] of 500 pM. Besides, the EC50 (read off the curve) with LRP4N-Myc (rat) [3] was found to be 400 pM.

B1: AP alone (enzyme, human, UniProt P05187 23-511, looked up)
chain: IIPVEEENPDFWNREAAEALGAAKKLQPAQTAAKNLIIFLGDGMGVSTVTAARILKGQKKDKLGPEIPLAMDRFPYVALSKTYNVDKHVPDSGATATAYLCGVKGNFQTIGLSAAARFNQCNTTRGNEVISVMNRAKKAGKSVGVVTTTRVQHASPAGTYAHTVNRNWYSDADVPASARQEGCQDIATQLISNMDIDVILGGGRKYMFRMGTPDPEYPDDYSQGGTRLDGKNLVQEWLAKRQGARYVWNRTELMQASLDPSVTHLMGLFEPGDMKYEIHRDSTLDPSLMEMTEAALRLLSRNPRGFFLFVEGGRIDHGHHESRAYRALTETIMFDDAIERAGQLTSEEDTLSLVTADHSHVFSFGGYPLRGSSIFGLAPGKARDRKAYTVLLYGNGPGYVLKDGARPDVTESESGSPEYRQQSAVPLDEETHAGEDVAVFARGPQAHLVHGVQEQTFIAHVMAFAACLEPYTACDLAPPAGTTDAAHPG
notes: Control protein; also called control (empty pAPtag-5)
Regarding B1, the results for the binding result (in the assay with LRP4-Myc; in assay [4]) were “no binding (tested: 1000 nM)” and “no binding (tested: 5 nM (not printed on the sheet))”, respectively.
